Results reported in IntAct's records for PubMed 23135401.

Key:
pcd15_mouse Pcdh15 = pcd15_mouse Pcdh15 (UniProt Q99PJ1)
Cdh23, Q99PF4-1 [1] = target: Cdh23, Q99PF4-1
Cdh23, Q99PF4-1 [2] = target: Cdh23, Q99PF4-1; remark: listed apart in the source

Cdh23, Q99PF4-1, sequence (Q99PF4 whole entry): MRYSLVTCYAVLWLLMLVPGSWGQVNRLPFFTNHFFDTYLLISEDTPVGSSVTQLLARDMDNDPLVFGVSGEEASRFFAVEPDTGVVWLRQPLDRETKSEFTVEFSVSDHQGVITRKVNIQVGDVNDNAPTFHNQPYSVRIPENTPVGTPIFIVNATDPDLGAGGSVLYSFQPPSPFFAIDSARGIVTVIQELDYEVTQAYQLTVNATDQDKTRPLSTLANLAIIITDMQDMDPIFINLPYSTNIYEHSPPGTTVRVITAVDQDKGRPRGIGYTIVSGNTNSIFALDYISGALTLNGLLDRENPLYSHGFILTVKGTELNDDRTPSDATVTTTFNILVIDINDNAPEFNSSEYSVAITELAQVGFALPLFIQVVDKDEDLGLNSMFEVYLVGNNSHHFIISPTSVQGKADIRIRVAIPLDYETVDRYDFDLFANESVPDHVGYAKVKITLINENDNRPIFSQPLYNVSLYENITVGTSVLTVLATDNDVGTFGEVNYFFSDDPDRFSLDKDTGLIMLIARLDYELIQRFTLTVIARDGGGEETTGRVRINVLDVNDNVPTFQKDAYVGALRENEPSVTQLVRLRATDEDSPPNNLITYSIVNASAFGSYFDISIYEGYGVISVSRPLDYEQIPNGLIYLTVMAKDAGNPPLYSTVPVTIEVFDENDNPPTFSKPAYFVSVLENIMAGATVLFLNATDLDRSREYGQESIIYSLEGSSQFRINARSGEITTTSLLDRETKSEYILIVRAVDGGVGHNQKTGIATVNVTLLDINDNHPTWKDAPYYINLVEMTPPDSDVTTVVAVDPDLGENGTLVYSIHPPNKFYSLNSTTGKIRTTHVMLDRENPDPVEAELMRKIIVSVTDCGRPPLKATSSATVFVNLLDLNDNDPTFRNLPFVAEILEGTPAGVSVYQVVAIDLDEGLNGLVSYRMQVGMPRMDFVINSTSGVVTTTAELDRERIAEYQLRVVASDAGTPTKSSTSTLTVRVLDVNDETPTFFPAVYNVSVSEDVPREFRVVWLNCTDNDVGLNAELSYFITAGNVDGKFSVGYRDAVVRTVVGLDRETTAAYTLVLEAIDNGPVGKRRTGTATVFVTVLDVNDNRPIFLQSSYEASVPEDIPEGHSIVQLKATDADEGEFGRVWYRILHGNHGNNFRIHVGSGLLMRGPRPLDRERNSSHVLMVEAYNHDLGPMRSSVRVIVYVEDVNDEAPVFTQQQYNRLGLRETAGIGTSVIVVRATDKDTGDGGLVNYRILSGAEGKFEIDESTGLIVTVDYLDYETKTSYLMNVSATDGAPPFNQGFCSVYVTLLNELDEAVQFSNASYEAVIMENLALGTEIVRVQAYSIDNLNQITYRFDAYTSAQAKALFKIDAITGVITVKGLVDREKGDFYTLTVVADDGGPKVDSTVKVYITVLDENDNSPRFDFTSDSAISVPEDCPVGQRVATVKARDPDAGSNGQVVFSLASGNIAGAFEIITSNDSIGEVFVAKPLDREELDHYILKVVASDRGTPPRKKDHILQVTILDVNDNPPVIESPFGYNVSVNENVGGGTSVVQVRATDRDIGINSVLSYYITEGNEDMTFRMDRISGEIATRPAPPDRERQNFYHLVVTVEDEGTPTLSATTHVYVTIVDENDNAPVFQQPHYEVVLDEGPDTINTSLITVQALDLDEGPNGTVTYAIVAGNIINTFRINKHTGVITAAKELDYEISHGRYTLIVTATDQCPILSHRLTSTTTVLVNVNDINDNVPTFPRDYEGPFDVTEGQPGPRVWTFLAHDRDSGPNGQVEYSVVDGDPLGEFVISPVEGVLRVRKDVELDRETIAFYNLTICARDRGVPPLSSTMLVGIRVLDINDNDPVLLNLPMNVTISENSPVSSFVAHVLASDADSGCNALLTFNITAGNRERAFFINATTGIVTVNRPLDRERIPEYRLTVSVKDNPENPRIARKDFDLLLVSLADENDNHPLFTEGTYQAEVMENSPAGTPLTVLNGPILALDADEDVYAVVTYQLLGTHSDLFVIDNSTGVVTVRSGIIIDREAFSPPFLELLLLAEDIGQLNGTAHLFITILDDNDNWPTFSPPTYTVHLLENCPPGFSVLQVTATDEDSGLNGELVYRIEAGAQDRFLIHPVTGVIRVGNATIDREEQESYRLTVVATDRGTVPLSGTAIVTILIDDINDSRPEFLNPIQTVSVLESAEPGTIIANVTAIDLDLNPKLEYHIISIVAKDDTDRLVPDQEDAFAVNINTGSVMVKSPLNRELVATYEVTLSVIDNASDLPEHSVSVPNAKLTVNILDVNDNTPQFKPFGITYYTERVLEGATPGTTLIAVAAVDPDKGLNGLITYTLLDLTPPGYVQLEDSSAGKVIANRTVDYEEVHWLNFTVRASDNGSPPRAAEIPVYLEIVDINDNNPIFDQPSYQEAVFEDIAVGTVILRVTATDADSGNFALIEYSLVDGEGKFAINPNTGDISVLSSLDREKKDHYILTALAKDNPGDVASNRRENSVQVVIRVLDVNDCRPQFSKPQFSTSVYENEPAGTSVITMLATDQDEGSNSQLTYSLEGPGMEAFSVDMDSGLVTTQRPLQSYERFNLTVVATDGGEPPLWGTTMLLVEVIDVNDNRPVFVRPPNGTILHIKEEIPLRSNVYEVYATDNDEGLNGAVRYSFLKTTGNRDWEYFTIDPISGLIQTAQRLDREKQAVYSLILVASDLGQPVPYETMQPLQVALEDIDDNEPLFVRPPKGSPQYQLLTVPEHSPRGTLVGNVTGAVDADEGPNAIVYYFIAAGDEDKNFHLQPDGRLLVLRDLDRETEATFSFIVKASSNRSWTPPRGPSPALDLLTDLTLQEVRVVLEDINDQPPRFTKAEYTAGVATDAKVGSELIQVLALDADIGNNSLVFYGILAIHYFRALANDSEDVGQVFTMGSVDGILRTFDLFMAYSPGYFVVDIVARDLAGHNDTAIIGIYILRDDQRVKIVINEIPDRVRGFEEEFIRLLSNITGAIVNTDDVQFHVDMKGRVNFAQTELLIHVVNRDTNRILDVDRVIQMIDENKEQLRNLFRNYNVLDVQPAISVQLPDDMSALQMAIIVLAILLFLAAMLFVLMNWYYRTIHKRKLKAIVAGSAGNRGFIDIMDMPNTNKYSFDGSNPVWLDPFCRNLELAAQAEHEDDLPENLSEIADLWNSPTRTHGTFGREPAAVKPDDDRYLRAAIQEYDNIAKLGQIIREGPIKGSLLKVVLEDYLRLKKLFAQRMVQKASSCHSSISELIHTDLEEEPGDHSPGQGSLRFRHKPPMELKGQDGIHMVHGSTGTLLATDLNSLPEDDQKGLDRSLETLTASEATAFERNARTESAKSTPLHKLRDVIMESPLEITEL

Substance	effect of a mutation on the interaction (pcd15_mouse Pcdh15)	effect of a mutation on the interaction (Cdh23, Q99PF4-1 [1])	effect of a mutation on the interaction (Cdh23, Q99PF4-1 [2])
Cadherin-23 (Mus musculus), Q99PF4-1 D124G	decreasing interaction strength	–	–
Cadherin-23 (Mus musculus), Q99PF4-1 L168G	decreasing interaction strength	–	–
Protocadherin-15 (Mus musculus), Q99PJ1 I48A	–	decreasing interaction strength	–
Protocadherin-15 (Mus musculus), Q99PJ1 R139G	–	decreasing interaction strength	disrupting interaction strength
